Patent US20230201308A1, “TREATMENT OF CORONAVIRUS INFECTION WITH […]” (Eiger Biopharmaceuticals, Inc., priority 2020, published 2023)
Read-outs that look alike come from different tables or passages of the source.

System: SARS-CoV-2
[1] = High risk population, Brazil, N = 698
[2] = High risk population, Brazil, N = 698 vs placebo N = 827
[3] = ITT population (Table 20), n=916 vs placebo 1003
[4] = ITT preliminary, n=916 vs placebo 1020

B1: pegylated interferon lambda-1a (protein)
chain: MKPTTTGKGCHIGRFKSLSPQELASFKKARDALEESLKLKNWSCSSPVFPGNWDLRLLQVRERPVALEAELALTLKVLEAAAGPALEDVLDQPLHTLHHILSQLQACIQPQPTAGPRPRGRLHHWLHRLQEAPKKESAGCLEASVTFNLFRLLTRDLKYVADGNLSLRTSTHPEST
modifications: PEG
notes: 180 mcg subcutaneous injection
Hospitalization or ER (any duration) for COVID-19: total [1]: 76 | Hospitalization or ER >6 h for COVID-19: percentage [1]: (3.2%) | Hospitalization or ER >6 h for COVID-19: total [1]: 22 | Mechanical ventilation: percentage [1]: (0.6%) | Mechanical ventilation: total [1]: 4 | All cause ER visit >6 h, hospitalization, or death: Pr (Superiority) [2]: 0.981 | All cause ER visit >6 h, hospitalization, or death: RR (95% CrI), estimated treatment effect [2]: 0.64 (0.42, 0.97) | All cause ER visit, hospitalization, or death: Pr (Superiority) [2]: 0.883 | All cause ER visit, hospitalization, or death: RR (95% CrI), estimated treatment effect [2]: 0.86 (0.68, 1.10) | All cause death or hospitalization due to COVID-19: Pr (Superiority) [2]: 0.924 | All cause death or hospitalization due to COVID-19: RR (95% CrI), estimated treatment effect [2]: 0.69 (0.41, 1.14) | Days of hospitalization: MD (95% CrI), estimated treatment effect [2]: −1.39 (−4.38, 1.20) | Days of hospitalization: Pr (Superiority) [2]: 0.8509 | Days on mechanical ventilation: MD (95% CrI), estimated treatment effect [2]: −4.47 (−6.89, 3.09) | Days on mechanical ventilation: Pr (Superiority) [2]: 0.9052 | Days to death for COVID-19: HR (95% CrI), estimated treatment effect [2]: 0.23 (0.01, 1.79) | Days to death for COVID-19: Pr (Superiority) [2]: 0.9080 | Days to hospitalization for COVID-19: HR (95% CrI), estimated treatment effect [2]: 0.58 (0.33, 0.98) | Days to hospitalization for COVID-19: Pr (Superiority) [2]: 0.9780 | Days to hospitalization or ER visit >6 h for COVID-19: HR (95% CrI), estimated treatment effect [2]: 0.47 (0.28, 0.76) | Days to hospitalization or ER visit >6 h for COVID-19: Pr (Superiority) [2]: 0.9992 | Days to hospitalization or death for COVID-19: HR (95% CrI), estimated treatment effect [2]: 0.62 (0.35, 1.05) | Days to hospitalization or death for COVID-19: Pr (Superiority) [2]: 0.9610 | Days to recovery: HR (95% CrI), estimated treatment effect [2]: 0.93 (0.83, 1.04) | Days to recovery: Pr (Superiority) [2]: 0.8862 | Death due to COVID-19: Pr (Superiority) [2]: 0.845 | Death due to COVID-19: RR (95% CrI), estimated treatment effect [2]: 0.42 (0.05, 2.08) | Death or hospitalization due to COVID-19: Pr (Superiority) [2]: 0.961 | Death or hospitalization due to COVID-19: RR (95% CrI), estimated treatment effect [2]: 0.63 (0.37, 1.05) | Hospitalization for COVID-19 (excluding those resulting in death): Pr (Superiority) [2]: 0.928 | Hospitalization for COVID-19 (excluding those resulting in death): RR (95% CrI), estimated treatment effect [2]: 0.67 (0.39, 1.14) | Hospitalization or ER (any duration) for COVID-19: Pr (Superiority) [2]: 0.991 | Hospitalization or ER (any duration) for COVID-19: RR (95% CrI), estimated treatment effect [2]: 0.72 (0.56, 0.95) | Hospitalization or ER >6 h for COVID-19: Pr (Superiority) [2]: 0.999 | Hospitalization or ER >6 h for COVID-19: RR (95% CI), estimated treatment effect [2]: 0.49 (0.30, 0.78) | Mechanical ventilation: Pr (Superiority) [2]: 0.717 | Mechanical ventilation: RR (95% CrI), estimated treatment effect [2]: 0.72 (0.21, 2.21) | All cause ER visit >6 h, hospitalization, or death, % of patients [3]: (3.7%) | All cause ER visit >6 h, hospitalization, or death, Pr (Superiority) [3]: 0.987 | All cause ER visit >6 h, hospitalization, or death, RR (95% CrI) vs placebo [3]: 0.64 (0.42, 0.95) | All cause ER visit, hospitalization, or death, % of patients [3]: (13.5%) | All cause ER visit, hospitalization, or death, Pr (Superiority) [3]: 0.831 | All cause ER visit, hospitalization, or death, RR (95% CrI) vs placebo [3]: 0.90 (0.72, 1.12) | All cause death or hospitalization due to COVID-19, % of patients [3]: (2.6%) | All cause death or hospitalization due to COVID-19, RR (95% CrI) vs placebo [3]: 0.66 (0.40, 1.07) | Days of hospitalization, IRR (95% CrI) vs placebo [3]: −1.02 (−3.86, 1.37) | Days on mechanical ventilation, IRR (95% CrI) vs placebo [3]: −4.47 (−6.89, 3.09) | Days to death for COVID-19, HR (95% CrI) vs placebo [3]: 0.22 (0.01, 1.64) | Days to hospitalization for COVID-19, HR (95% CrI) vs placebo [3]: 0.57 (0.33, 0.95) | Days to hospitalization or ER visit >6 h for COVID-19, HR (95% CrI) vs placebo [3]: 0.47 (0.29, 0.73) | Days to hospitalization or ER visit >6 h for COVID-19, Pr (Superiority) [3]: 0.999 | Days to hospitalization or death for COVID-19, HR (95% CrI) vs placebo [3]: 0.59 (0.35, 1.00) | Days to recovery, HR (95% CrI) vs placebo [3]: 0.94 (0.85, 1.05) | Death due to COVID-19, % of patients [3]: (0.1%) | Death due to COVID-19, RR (95% CrI) vs placebo [3]: 0.40 (0.05, 1.95) | Death or hospitalization due to COVID-19, % of patients [3]: (2.4%) | Death or hospitalization due to COVID-19, RR (95% CrI) vs placebo [3]: 0.61 (0.36, 0.99) | Hospitalization or ER (any duration) for COVID-19, % of patients [3]: (10.8%) | Hospitalization or ER (any duration) for COVID-19, Pr (Superiority) [3]: 0.981 | Hospitalization or ER (any duration) for COVID-19, RR (95% CrI) vs placebo [3]: 0.78 (0.61, 0.99) | Hospitalization or ER >6 h for COVID-19, % of patients [3]: (2.7%) | Hospitalization or ER >6 h for COVID-19, Pr (Superiority) [3]: 0.999 | Hospitalization or ER >6 h for COVID-19, RR (95% CI) vs placebo [3]: 0.49 (0.30, 0.76) | Mechanical ventilation, % of patients [3]: (0.4%) | Mechanical ventilation, RR (95% CrI) vs placebo [3]: 0.66 (0.20, 2.03) | Days to hospitalization for COVID-19, IQR (ITT preliminary, n=916): 3.0 | Days to hospitalization for COVID-19, Mean (ITT preliminary, n=916): 5.10 | Days to hospitalization for COVID-19, Median (ITT preliminary, n=916): 4.0 | Days to hospitalization or ER visit ≥6 h for COVID-19, IQR (ITT preliminary, n=916): 3.0 | Days to hospitalization or ER visit ≥6 h for COVID-19, Mean (ITT preliminary, n=916): 5.8 | Days to hospitalization or ER visit ≥6 h for COVID-19, Median (ITT preliminary, n=916): 4.0 | Days until death due to COVID-19, IQR (ITT preliminary, n=916): 16.0 | Days until death due to COVID-19, Mean (ITT preliminary, n=916): 22 | Days until death due to COVID-19, Median (ITT preliminary, n=916): 22.0 | Any cause Death, % of patients (ITT preliminary, n=916, 28 days): (0.3%) | ER visits over 6 hrs, % of patients [4]: 0.7% | Relative Reduction in Risk, Deaths [4]: 0.72 | Relative Reduction in Risk, ER visits over 6 hrs [4]: 0.68 | Relative Reduction in Risk, Hospitalizations [4]: 0.43 | Relative Reduction in Risk, Hospitalizations or ER visits over 6 hrs [4]: 0.50 | Death due to COVID-19, RR (95% CrI) vs placebo (ITT preliminary, n=916 vs placebo 1020, 28 days): 0.40 (0.05, 2.00)
